From publication PMC3424236, “Siderocalin/Lcn2/NGAL/24p3 Does Not Drive Apoptosis Through Gentisic Acid Mediated Iron Withdrawal in Hematopoietic Cell Lines” (PLoS ONE, 2012)
Each block holds one binder with its values, some of them ahead of it.

Key:
[1] = target: T1, murine siderocalin (Scn) (murine, UniProt P11672 21-200); test: SPR; 2086 RU of Scn amine-coupled to a CM5 chip; CTD analytes 3.125 to 50 µM, one minute at 20 µl/min, Biacore 3000, double-subtraction; comparable for NTD; conditions: both partners purified
T1 construct: siderocalin (lipocalin 2, NGAL, 24p3), murine; the discussion says that murine Scn was tested with the murine BOCT subdomains; also called lipocalin 2; Lcn2; source: expressed recombinantly in E. coli, produced as previously described [46]; for the HeLa assays also obtained from R&D Systems or the gift of L. Devireddy
T1 sequence (looked up): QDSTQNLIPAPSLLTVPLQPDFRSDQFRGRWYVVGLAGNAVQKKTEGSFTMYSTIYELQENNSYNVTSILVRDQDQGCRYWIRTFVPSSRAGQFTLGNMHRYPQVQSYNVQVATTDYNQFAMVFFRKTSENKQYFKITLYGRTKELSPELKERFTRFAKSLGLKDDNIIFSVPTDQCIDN

[2] = target: T2, murine siderocalin (Scn) (murine, UniProt P11672); test: crystal structure; Scn/Fab complex purified by size exclusion chromatography; vapor diffusion at 25°C, 0.1 M sodium citrate pH 4.2, 0.2 M sodium chloride, 20% w/w PEG 8000; conditions: both partners purified
T2 construct: siderocalin (lipocalin 2, NGAL, 24p3), murine; the discussion says that murine Scn was tested with the murine BOCT subdomains; also called lipocalin 2; Lcn2; source: expressed recombinantly in E. coli, produced as previously described [46]; for the HeLa assays also obtained from R&D Systems or the gift of L. Devireddy

[3] = target: T3, 24p3R CTD (Homo sapiens, UniProt Q8WUG5); test: SPR
T3 chain: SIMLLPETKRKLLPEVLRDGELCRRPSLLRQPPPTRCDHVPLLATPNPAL

Kd [1]: > 50 µM
B1: BOCT C-terminal domain CTD^477-520 (domain or fragment)
chain: ETKRKLLPEVLRDGELCRRPSLLRQPPPNRCDHVPLLATPNPAL
modifications: Paper numbering is for the 520-residue long form (24p3R-L). The entry has 401 residues, so offset is -119: C-terminal 44 residues, just after the last TM (336-356). Printed loop peptides 210-218 and …

binding result [2]: binds
B2: Fab MAB1857 (Fab fragment of monoclonal anti-Scn rat IgG2A, R&D Systems MAB1857) (Fab, V domains shown)
VH: EVKLQESGPSLVQPSQTLSLTCTVSGFSLTSNSVHWVRQPPGQGLEWMGGIWGDGRTDYNSALKSRLSISRDTSKSQVFLKMNSLQTDDTAIYFCTRCRRDSSYVVDAWGQGASVTVSS
VL: DILMTQSPLSLSASLGDKVTITCQASQIIYNYIAWYQQKPGKAPRLLIRYTSTLESGTPSRFSGSGSGRDYSFSISNVESEDIASYYCLQYDNLPYMFGAGTKLELK
notes: rat IgG2A; Fab made with papain; also called anti-Scn antibody MAB1857; source: bought: R&D Systems MAB1857, cleaved with papain

Kd [3]: > 50 µM
B3: Siderocalin (protein)
chain: QDSTSDLIPAPPLSKVPLQQNFQDNQFQGKWYVVGLAGNAILREDKDPQKMYATIYELKEDKSYNVTSVLFRKKKCDYWIRTFVPGCQPGEFTLGNIKSYPGLTSYLVRVVSTNYNQHAMVFFKKVSQNREYFKITLYGRTKELTSELKENFIRFSKSLGLPENHIVFPVPIDQCIDG
